Test results taken from publication doi:10.1101/2025.05.23.655777v1.

Tested on: NCCCC(=O)O
Test: purified protein
Conditions: fixed pyruvate (6 mM), TAPS pH 9.0, 50 µM PLP, 30 °C

## GABA-AT; GABA aminotransferase 1 (recombinant) (Arabidopsis thaliana)
  Km: 590 ± 200 µM
  kcat: 4.97 s⁻¹
